Experiments:
Conditions in all cases: both partners purified
[1] = biological target: T1, His6-ChlD (K49A), Walker A mutant (Synechocystis sp. PCC 6803, UniProt P72772 1-676, K49A); experiment: pull-down; co-purification on Ni(II) chelating Sepharose through His6-ChlD; 2 μM ChlD and 2 μM ChlI, with nucleotide (methods: 5 mM ADP; legend: ATP), 15 mM MgCl2, 50 mM Tricine, 0.3 M glycerol, pH 7.9, room temperature; SDS-PAGE of the resin
T1 construct: Magnesium chelatase subunit ChlD, Synechocystis sp; PCC 6803, with K49A in the Walker A motif; Same construct as m2 with one point mutation; also called K49A mutant; source: Rosetta2(DE3) pLysS, site-directed mutant (QuikChange) of pET9a-His6ChlD, purified

[2] = biological target: T2, His6-ChlD, wild type, of the magnesium chelatase of Synechocystis sp. PCC 6803 (Synechocystis sp. PCC 6803, UniProt P72772 1-676); experiment: chelatase assembly titration (steady-state enzyme activity); apparent; ChlI titrated against 0.1 μM His6-ChlD with 0.4 μM ChlH, steady-state rate of MgDIX formation fitted to Equation 3; 50 mM MOPS/KOH, 0.3 M glycerol, 1 mM DTT, 10 mM free Mg2+, I = 0.1 with KCl, 8 μM DIX, pH 7.7, 34 °C
T2 construct: Magnesium chelatase subunit ChlD, Synechocystis sp; PCC 6803; also called wild type ChlD; wild type His6-ChlD; source: Rosetta2(DE3) pLysS, vector pET9a-His6ChlD, purified

[3] = biological target: T3, His6-ChlD (E152Q), Walker B mutant (Synechocystis sp. PCC 6803, UniProt P72772 1-676, E152Q); experiment: as above
T3 construct: Magnesium chelatase subunit ChlD, Synechocystis sp; PCC 6803, with E152Q in the Walker B motif; Same construct as m2 with one point mutation; also called E152Q mutant; source: Rosetta2(DE3) pLysS, site-directed mutant (QuikChange) of pET9a-His6ChlD, purified

[4] = biological target: T4, His6-ChlD (R208A), arginine finger mutant (Synechocystis sp. PCC 6803, UniProt P72772 1-676, R208A); experiment: as above
T4 construct: Magnesium chelatase subunit ChlD, Synechocystis sp; PCC 6803, with R208A removing the arginine finger; Same construct as m2 with one point mutation; also called R208A mutant; source: Rosetta2(DE3) pLysS, site-directed mutant (QuikChange) of pET9a-His6ChlD, purified

[5] = biological target: T5, His6-ChlD (R289A), Sensor II mutant (Synechocystis sp. PCC 6803, UniProt P72772 1-676, R289A); experiment: as above
T5 construct: Magnesium chelatase subunit ChlD, Synechocystis sp; PCC 6803, with R289A removing the Sensor II arginine; Same construct as m2 with one point mutation; also called R289A mutant; Sensor II arginine mutant; source: Rosetta2(DE3) pLysS, site-directed mutant (QuikChange) of pET9a-His6ChlD, purified
T5 sequence (P72772 whole entry R289A): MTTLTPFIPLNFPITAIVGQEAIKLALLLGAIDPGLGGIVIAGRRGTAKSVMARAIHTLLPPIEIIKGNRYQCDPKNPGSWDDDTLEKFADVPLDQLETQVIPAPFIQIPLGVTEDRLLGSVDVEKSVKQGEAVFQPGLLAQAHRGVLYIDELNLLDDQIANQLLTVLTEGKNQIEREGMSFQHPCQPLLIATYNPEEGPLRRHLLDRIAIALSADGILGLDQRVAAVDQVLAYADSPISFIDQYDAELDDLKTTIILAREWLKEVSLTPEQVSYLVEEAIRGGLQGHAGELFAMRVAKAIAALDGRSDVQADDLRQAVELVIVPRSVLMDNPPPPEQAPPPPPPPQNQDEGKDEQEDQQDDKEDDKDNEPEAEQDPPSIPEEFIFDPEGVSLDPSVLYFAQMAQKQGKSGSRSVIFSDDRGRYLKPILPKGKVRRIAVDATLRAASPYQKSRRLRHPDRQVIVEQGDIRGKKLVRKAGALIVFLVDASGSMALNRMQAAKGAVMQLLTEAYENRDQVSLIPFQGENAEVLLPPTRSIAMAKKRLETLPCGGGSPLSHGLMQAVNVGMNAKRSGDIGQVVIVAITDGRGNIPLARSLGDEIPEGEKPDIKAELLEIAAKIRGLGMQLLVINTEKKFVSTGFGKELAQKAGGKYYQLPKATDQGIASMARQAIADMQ

T4 sequence (P72772 whole entry R208A): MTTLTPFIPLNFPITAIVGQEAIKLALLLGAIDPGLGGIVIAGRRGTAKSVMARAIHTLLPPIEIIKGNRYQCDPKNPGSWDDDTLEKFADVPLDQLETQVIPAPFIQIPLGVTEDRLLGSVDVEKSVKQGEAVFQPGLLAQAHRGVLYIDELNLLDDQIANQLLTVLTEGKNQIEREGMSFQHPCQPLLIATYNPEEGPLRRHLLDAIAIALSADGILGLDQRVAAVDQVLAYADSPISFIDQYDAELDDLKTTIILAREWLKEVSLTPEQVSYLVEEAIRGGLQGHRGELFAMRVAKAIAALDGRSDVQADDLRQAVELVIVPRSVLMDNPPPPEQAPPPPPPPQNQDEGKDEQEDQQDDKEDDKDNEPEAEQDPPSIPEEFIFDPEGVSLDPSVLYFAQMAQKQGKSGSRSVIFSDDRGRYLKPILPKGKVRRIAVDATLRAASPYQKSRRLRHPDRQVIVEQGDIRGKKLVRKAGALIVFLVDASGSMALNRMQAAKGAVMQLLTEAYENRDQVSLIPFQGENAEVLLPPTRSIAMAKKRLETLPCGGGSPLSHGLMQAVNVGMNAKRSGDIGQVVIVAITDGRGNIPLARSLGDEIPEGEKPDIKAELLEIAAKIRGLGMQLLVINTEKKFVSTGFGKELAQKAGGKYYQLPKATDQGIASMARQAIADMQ
T3 sequence (P72772 whole entry E152Q): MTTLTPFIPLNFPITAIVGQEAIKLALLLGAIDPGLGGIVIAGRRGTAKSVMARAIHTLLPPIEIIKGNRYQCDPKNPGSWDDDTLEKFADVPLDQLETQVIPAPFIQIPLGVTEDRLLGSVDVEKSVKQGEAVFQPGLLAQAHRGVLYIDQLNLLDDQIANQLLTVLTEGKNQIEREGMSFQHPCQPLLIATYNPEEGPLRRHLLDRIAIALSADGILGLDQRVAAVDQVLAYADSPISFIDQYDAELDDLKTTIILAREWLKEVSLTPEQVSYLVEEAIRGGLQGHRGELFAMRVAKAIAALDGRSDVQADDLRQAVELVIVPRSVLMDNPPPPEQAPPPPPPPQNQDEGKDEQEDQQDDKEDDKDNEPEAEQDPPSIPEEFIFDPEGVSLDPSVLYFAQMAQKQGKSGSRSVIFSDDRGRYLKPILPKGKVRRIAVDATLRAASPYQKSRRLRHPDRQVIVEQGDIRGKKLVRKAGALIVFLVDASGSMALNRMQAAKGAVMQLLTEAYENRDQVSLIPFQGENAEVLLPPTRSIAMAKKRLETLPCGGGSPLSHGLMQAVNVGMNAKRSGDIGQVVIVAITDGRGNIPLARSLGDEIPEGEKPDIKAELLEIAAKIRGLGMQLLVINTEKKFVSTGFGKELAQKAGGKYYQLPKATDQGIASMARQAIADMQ
T2 sequence (P72772 whole entry): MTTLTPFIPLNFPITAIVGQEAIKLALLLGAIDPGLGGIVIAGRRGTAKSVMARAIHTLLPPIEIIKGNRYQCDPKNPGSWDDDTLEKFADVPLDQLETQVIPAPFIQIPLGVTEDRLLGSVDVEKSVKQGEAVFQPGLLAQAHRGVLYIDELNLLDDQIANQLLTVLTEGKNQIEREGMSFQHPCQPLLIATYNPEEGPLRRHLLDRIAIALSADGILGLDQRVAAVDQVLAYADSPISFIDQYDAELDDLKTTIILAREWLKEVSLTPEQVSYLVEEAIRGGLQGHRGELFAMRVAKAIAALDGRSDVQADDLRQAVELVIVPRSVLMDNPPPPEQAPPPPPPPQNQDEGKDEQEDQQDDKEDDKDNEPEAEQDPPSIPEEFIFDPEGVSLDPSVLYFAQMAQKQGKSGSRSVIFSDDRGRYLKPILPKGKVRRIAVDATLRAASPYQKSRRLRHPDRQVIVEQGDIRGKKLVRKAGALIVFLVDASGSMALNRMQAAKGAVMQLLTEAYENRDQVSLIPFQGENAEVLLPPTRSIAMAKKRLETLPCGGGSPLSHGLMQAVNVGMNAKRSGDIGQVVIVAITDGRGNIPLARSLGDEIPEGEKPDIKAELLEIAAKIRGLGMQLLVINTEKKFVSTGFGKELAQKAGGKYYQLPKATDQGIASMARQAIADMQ
T1 sequence (P72772 whole entry K49A): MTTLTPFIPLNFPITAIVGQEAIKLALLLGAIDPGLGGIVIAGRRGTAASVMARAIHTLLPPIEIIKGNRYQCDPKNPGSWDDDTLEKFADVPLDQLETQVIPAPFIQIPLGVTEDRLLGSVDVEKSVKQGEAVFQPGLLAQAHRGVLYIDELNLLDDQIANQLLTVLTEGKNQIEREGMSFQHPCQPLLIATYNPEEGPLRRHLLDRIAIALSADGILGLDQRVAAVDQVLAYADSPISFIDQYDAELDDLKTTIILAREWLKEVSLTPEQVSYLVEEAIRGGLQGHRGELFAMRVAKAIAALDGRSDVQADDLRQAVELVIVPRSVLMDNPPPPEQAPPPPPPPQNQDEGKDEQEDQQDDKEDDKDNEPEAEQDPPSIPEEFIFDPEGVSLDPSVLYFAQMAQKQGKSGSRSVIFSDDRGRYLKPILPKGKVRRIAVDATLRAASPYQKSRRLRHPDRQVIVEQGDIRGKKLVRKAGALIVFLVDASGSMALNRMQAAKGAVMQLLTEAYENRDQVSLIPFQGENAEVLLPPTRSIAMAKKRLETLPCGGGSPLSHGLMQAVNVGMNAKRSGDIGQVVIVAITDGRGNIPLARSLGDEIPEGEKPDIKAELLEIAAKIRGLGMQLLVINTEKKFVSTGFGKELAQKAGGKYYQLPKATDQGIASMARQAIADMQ

B1: ChlI protein of the magnesium chelatase of Synechocystis sp. PCC 6803 (natural protein, UniProt P51634 1-357, looked up)
chain: MTATLAAPSKTRRVVFPFTAIVGQDEMKLALLLNVIDPKIGGVMIMGDRGTGKSTTIRALADLLPEIEVVANDPFNSSPSDPEMMSEEVRIRVDSQEPLSIVKKKVTMVDLPLGATEDRVCGTIDIEKALSEGVKAFEPGLLAKANRGILYVDEVNLLDDHLVDVLLDSAAGGWNTVEREGISIRHPARFVLVGSGNPEEGELRPQLLDRFGMHAEIRTVREPELRVKIVEQRTEFDQNPHPFCDQYQTEQEALQAKIVNAQNLLPQVTIDYDYRVKVSEVCAELDVDGLRGDIVTNRAAKALAAFEGRTEVTVDDISRVIVLCLRHRLRKDPLESIDSGSKVEKVFKRVFGVVDEA
notes: Magnesium chelatase subunit ChlI, Synechocystis sp; PCC 6803; no tag is named for ChlI; also called wild type ChlI; source: BL21(DE3), vector pET9a-ChlI, autoinducing medium ZYM-5052, purified
B1 was tested, and the binding result [1] was “binds”, the Kd [2] was 0.17 nM and the “nd (concentration of binding sites for ChlI)” value [2] was 0.23 µM. For the same binder, the Kd [3] was 0.35 nM, the “nd (concentration of binding sites for ChlI)” value [3] was 0.24 µM and the Kd [4] was 14 nM. The “nd (concentration of binding sites for ChlI)” value [4] was 0.2 µM, the Kd [5] was 52 nM and the “nd (concentration of binding sites for ChlI)” value [5] was 0.19 µM.

Reference: article PMC3789969, “The Allosteric Role of the AAA^+ Domain of ChlD Protein from the Magnesium Chelatase of Synechocystis Species PCC 6803*” (The Journal of Biological Chemistry, 2013)
